Data taken from paper PMC4753521, “Real-time and simultaneous monitoring of the phosphorylation and enhanced interaction of p53 and XPC acidic domains with the TFIIH p62 subunit” (Oncogenesis, 2015).
Non-standard residues stand in square brackets, D forms with d. No end group written: not given here. pT = C[C@@H](OP(=O)(O)O)[C@H](N)C(=O)O; pS = N[C@@H](COP(=O)(O)O)C(=O)O

T1: human TFIIH p62-PH domain (residues 1–108) (human, UniProt P32780 1-108)
T1 construct: PH domain of the p62 subunit of the general transcription factor TFIIH, human, residues 1-108; Used 15N- or 13C/15N-labelled in the NMR experiments, unlabelled when added to XPC-AF; also called pleckstrin homology (PH) domain of the p62 subunit of TFIIH
T1 sequence (looked up): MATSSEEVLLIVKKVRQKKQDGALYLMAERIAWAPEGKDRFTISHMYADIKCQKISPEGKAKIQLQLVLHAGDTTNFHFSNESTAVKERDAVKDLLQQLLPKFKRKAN


How the values were obtained:
Conditions in all cases: both partners purified
[1] = target: T1, human TFIIH p62-PH domain (residues …); test: ITC; VP-ITC; 100 μM XPC peptide in the syringe (25 × 20 μl injections), 2 ml of 10 μM p62-PH in the cell; 20 °C; 20 mM potassium phosphate (pH 6.8)
[2] = target: T1, human TFIIH p62-PH domain (residues …); test: NMR titration; real-time NMR of 150 μl of 50 μM complex of labeled XPC-AF and labeled p62-PH; 2.5 μg CK2 added; 20 mM potassium phosphate (pH 6.8), 1 mM ATP, 10 mM MgCl2, 5 mM deuterated DTT, 10% D2O
[3] = target: T1, human TFIIH p62-PH domain (residues …); test: NMR titration; 1H,15N HSQC perturbation: p53-TAD2 peptides added to 15N-labeled p62-PH at a molar ratio of 1:2.5 (p62:p53); 20 mM potassium phosphate (pH 6.8), 1 mM ATP, 10 mM MgCl2, 5 mM deuterated DTT, 10% D2O; 32 °C

Kd [1]	binding result [3]	Binder	other results
41 nM		EEEEE[pS]ENDWEEVEELSEP (peptide, UniProt Q01831 124-142, looked up, XPC, human, residues 124-142; also called Ser129-phosphorylated XPC peptide; source: synthetic peptide, bought: Sigma Genosys Japan) [Ser129-phosphorylated peptide of human XPC (residues 124–142)]	
		AHHLKRGATMNEDSNEEEEE[pS]ENDWEEVEELSEPVLGDVRESTAFSRS (domain or fragment, UniProt Q01831 109-156, looked up, also: 13C/15N-labeled, acidic fragment of the nucleotide excision repair factor XPC, human, residues 109-156; 13C/15N-labelled; in the complex with p62-PH phosphorylation of Ser129 reached ~80% at ~2 h; also called Ser129-phosphorylated XPC-AF; source: E. coli Rosetta 2 (DE3) pLysS, purified (Ni-NTA, thrombin digestion, Superdex30); phosphorylated by CK2 in the NMR tube) [human XPC-AF (residues 109–156) phosphorylated at Ser129 by CK2]	binding result [2]: binds
	binds	DDLML[pS]PDDIEQWF[pT]EDPGPDE (peptide, UniProt P04637 41-62, looked up, p53 TAD2, human, residues 41-62; also called Ser46, Thr55 double-phosphorylated p53-TAD2; source: synthetic peptide, bought: Sigma Genosys Japan) [Ser46, Thr55 double-phosphorylated peptide of human p53-TAD2 (residues 41–62)]	
	binds	DDLMLSPDDIEQWF[pT]EDPGPDE (peptide, UniProt P04637 41-62, looked up, p53 TAD2, human, residues 41-62; also called Thr55-phosphorylated p53-TAD2; TP; source: synthetic peptide, bought: Sigma Genosys Japan) [Thr55-phosphorylated peptide of human p53-TAD2 (residues 41–62)]	
132 nM		EEEEESENDWEEVEELSEP (peptide, UniProt Q01831 124-142, looked up, XPC, human, residues 124-142; also called unphosphorylated XPC peptide; source: synthetic peptide, bought: Sigma Genosys Japan) [unphosphorylated peptide of human XPC (residues 124–142)]	
	binds	DDLML[pS]PDDIEQWFTEDPGPDE (peptide, UniProt P04637 41-62, looked up, p53 TAD2, human, residues 41-62; also called Ser46-phosphorylated p53-TAD2; source: synthetic peptide, bought: Sigma Genosys Japan) [Ser46-phosphorylated peptide of human p53-TAD2 (residues 41–62)]	
